Measured values as given in paper PMC8625570 (2021).

Assays:
Test in all cases: mGppNHp-bound
RAC1 T25K/N26D [1] = target: T1, RAC1 T25K/N26D (human, UniProt P63000 1-179, T25K | N26D)
CDC42 Q74D [2] = target: T2, CDC42 Q74D (human, UniProt P60953 1-178, Q74D)
CDC42 V85D/S88D [3] = target: T3, CDC42 V85D/S88D (human, UniProt P60953 1-178, V85D | S88D)
[4] = target: T4, RAC1 V85D/S88D (so in the source); residue 88 of RAC1 is Ala by the legend of Figure 2) (human, UniProt P63000 1-179, V85D | S88D (Ala-88 in RAC1))
RAC1 Q74D [5] = target: T5, RAC1 Q74D (human, UniProt P63000 1-179, Q74D)
[6] = target: T6, RHOA-to-RAC1 variant (RHOA K27T, D28N, E47M, E54N, D76Q) (human, UniProt P61586 1-181, K27T | D28N | E47M | E54N | D76Q)
RAC1 M45E/N52E [7] = target: T7, RAC1 M45E/N52E (human, UniProt P63000 1-179, M45E | N52E)
CDC42 T25K/N26D [8] = target: T8, CDC42 T25K/N26D (human, UniProt P60953 1-178, T25K | N26D)
[9] = target: T9, CDC42 M45E/N52E (so in the source); residue 52 of CDC42 is given as T52 in the discussion) (human, UniProt P60953 1-178, M45E | N52E (T52 in CDC42))
RAC1 T25K/N26D [10] = target: T1, RAC1 T25K/N26D; remark: listed apart in the source
CDC42 Q74D [11] = target: T2, CDC42 Q74D; remark: listed apart in the source
CDC42 V85D/S88D [12] = target: T3, CDC42 V85D/S88D; remark: listed apart in the source
[13] = target: T4, RAC1 V85D/S88D (so in the source); residue 88 …; remark: listed apart in the source
RAC1 Q74D [14] = target: T5, RAC1 Q74D; remark: listed apart in the source
[15] = target: T6, RHOA-to-RAC1 variant (RHOA K27T, D28N, …); remark: listed apart in the source
RAC1 M45E/N52E [16] = target: T7, RAC1 M45E/N52E; remark: listed apart in the source
CDC42 T25K/N26D [17] = target: T8, CDC42 T25K/N26D; remark: listed apart in the source
[18] = target: T9, CDC42 M45E/N52E (so in the source); residue 52 …; remark: listed apart in the source
RAC3 (aa 1-192) [19] = target: T10, RAC3 (aa 1-192) (human, UniProt P60763 1-192)
RAC1 (aa 1-179) [20] = target: T11, RAC1 (aa 1-179) (human, UniProt P63000 1-179)
RHOG (aa 1-178) [21] = target: T12, RHOG (aa 1-178) (human, UniProt P84095 1-178)
CDC42 (aa 1-178) [22] = target: T13, CDC42 (aa 1-178) (human, UniProt P60953 1-178)
RAC3 (aa 1-192) [23] = target: T10, RAC3 (aa 1-192); remark: listed apart in the source
RAC1 (aa 1-179) [24] = target: T11, RAC1 (aa 1-179); remark: listed apart in the source
RAC2 (aa 1-192) = RAC2 (aa 1-192) (human, UniProt P15153 1-192)
RHOG (aa 1-178) [25] = target: T12, RHOG (aa 1-178); remark: listed apart in the source
CDC42 (aa 1-178) [26] = target: T13, CDC42 (aa 1-178); remark: listed apart in the source

T2 sequence (P60953 1-178 Q74D): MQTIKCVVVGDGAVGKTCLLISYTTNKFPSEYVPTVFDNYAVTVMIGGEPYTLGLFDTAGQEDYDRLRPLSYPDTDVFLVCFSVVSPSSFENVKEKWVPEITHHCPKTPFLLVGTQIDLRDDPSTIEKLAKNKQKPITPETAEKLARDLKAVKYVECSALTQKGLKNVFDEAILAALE
T13 sequence (P60953 1-178): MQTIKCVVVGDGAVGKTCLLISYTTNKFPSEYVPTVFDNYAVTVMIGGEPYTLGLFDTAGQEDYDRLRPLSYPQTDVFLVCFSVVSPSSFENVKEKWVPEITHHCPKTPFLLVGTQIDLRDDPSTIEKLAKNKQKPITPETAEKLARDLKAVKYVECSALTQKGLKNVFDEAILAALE
T6 sequence (P61586 1-181 K27T/D28N/E47M/E54N/D76Q): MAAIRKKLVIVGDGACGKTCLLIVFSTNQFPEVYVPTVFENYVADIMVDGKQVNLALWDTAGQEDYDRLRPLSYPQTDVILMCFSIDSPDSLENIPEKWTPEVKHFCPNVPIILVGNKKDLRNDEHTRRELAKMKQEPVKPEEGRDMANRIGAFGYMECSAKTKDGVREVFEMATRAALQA
T12 sequence (P84095 1-178): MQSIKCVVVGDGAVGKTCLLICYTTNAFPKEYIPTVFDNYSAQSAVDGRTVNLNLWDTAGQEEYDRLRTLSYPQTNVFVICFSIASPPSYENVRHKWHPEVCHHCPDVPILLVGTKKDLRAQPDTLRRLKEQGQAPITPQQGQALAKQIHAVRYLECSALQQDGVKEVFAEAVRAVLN
T9 sequence (P60953 other isoform, or with tags, fused parts or gaps M45E | N52E (T52 in CDC42) | M45E N52E): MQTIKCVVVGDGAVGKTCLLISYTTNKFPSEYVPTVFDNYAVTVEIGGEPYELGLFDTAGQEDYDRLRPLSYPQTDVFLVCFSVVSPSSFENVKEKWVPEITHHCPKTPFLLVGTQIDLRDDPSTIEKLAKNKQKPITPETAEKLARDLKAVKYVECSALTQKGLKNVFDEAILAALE
T8 sequence (P60953 1-178 T25K/N26D): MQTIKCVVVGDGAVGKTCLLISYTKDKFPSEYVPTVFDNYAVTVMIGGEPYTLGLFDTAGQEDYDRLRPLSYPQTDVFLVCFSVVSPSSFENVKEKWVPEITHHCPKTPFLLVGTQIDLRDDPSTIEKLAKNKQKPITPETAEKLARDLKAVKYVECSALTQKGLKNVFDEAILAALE
T3 sequence (P60953 1-178 V85D/S88D): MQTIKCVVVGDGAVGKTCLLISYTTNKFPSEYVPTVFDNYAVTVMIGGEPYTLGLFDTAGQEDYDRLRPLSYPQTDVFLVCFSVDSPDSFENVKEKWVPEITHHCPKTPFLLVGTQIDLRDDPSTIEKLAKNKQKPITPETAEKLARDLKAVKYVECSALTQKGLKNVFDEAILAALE

B1: IQGAP1^C794 (C-terminal half of human IQGAP1 with the GRD, RGCT and CT domains) (domain or fragment)
chain: DPPMVVVRKFVHLLDQSDQDFQEELDLMKMREEVITLIRSNQQLENDLNLMDIKIGLLVKNKITLQDVVSHSKKLTKKNKEQLSDMMMINKQKGGLKALSKEKREKLEAYQHLFYLLQTNPTYLAKLIFQMPQNKSTKFMDSVIFTLYNYASNQREEYLLLRLFKTALQEEIKSKVDQIQEIVTGNPTVIKMVVSFNRGARGQNALRQILAPVVKEIMDDKSLNIKTDPVDIYKSWVNQMESQTGEASKLPYDVTPEQALAHEEVKTRLDSSIRNMRAVTDKFLSAIVSSVDKIPYGMRFIAKVLKDSLHEKFPDAGEDELLKIIGNLLYYRYMNPAIVAPDAFDIIDLSAGGQLTTDQRRNLGSIAKMLQHAASNKMFLGDNAHLSIINEYLSQSYQKFRRFFQTACDVPELQDKFNVDEYSDLVTLTKPVIYISIGEIINTHTLLLDHQDAIAPEHNDPIHELLDDLGEVPTIESLIGESSGNLNDPNKEALAKTEVSLTLTNKFDVPGDENAEMDARTILLNTKRLIVDVIRFQPGETLTEILETPATSEQEAEHQRAMQRRAIRDAKTPDKMKKSKSVKEDSNLTLQEKKEKIQTGLKKLTELGTVDPKNKYQELINDIARDIRNQRRYRQRRKAELVKLQQTYAALNSKATFYGEQVDYYKSYIKTCLDNLASKGKVSKKPREMKGKKSKKISLKYTAARLHEKGVLLEIEDLQVNQFKNVIFEISPTEEVGDFEVKAKFMGVQMETFMLHYQDLLQLQYEGVAVMKLFDRAKVNVNLLIFLLNKKFYGK
RAC1 T25K/N26D [1]
  koff: 2.01 s⁻¹
CDC42 Q74D [2]
  koff: 1.19 s⁻¹
CDC42 V85D/S88D [3]
  koff: 0.88 s⁻¹
[4]
  koff: 2.84 s⁻¹
RAC1 Q74D [5]
  koff: 0.74 s⁻¹
[6]
  koff: 2.1 s⁻¹
RAC1 M45E/N52E [7]
  koff: 1.4 s⁻¹
CDC42 T25K/N26D [8]
  koff: 0.48 s⁻¹
[9]
  koff: 0.95 s⁻¹
RAC1 T25K/N26D [10]
  Kd: 15300 nM
CDC42 Q74D [11]
  Kd: 1320 nM
CDC42 V85D/S88D [12]
  Kd: 1200 nM
[13]
  Kd: 10500 nM
RAC1 Q74D [14]
  Kd: 6100 nM
[15]
  Kd: 1750 nM
RAC1 M45E/N52E [16]
  Kd: 8200 nM
CDC42 T25K/N26D [17]
  Kd: 920 nM
[18]
  Kd: 1230 nM
RAC3 (aa 1-192) [19]
  Kd: 450 nM
RAC1 (aa 1-179) [20]
  Kd: 930 nM
RHOG (aa 1-178) [21]
  Kd: 490 nM
CDC42 (aa 1-178) [22]
  Kd: 290 nM
RAC3 (aa 1-192) [23]
  koff: 0.69 s⁻¹
RAC1 (aa 1-179) [24]
  koff: 0.65 s⁻¹
RAC2 (aa 1-192)
  koff: 0.08 s⁻¹
RHOG (aa 1-178) [25]
  koff: 0.56 s⁻¹
CDC42 (aa 1-178) [26]
  koff: 0.39 s⁻¹
